Laboratory results reported in PMC8316464.

Assays:
Experiment in all cases: SPR; Biacore S200; Bcl-2 family proteins immobilised on CM5 (amine coupling or His-Capture Kit); peptides and flag-tagged proteins as analytes, single-cycle kinetics, HBS-EP, 25 °C; 1:1 Langmuir model; absence of binding probed at 100 nM and 3 µM
Bcl-2 (human) = Bcl-2 (human) (UniProt P10415)
Bcl-xL (human) = Bcl-xL (human) (UniProt Q07817)
[1] = target: His-tagged human Mcl-1 (human) (UniProt Q07820)
Sequence of His-tagged human Mcl-1 (human) (Q07820 whole entry): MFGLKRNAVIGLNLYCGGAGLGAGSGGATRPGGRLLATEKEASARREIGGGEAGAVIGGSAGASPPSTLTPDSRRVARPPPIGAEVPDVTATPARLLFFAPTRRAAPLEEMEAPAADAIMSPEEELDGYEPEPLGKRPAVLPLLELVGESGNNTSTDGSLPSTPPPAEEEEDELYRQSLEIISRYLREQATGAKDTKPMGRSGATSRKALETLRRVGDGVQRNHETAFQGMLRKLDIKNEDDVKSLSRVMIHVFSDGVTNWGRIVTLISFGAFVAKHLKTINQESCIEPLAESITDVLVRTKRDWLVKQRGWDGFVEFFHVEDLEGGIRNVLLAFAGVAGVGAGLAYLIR

Sequence of Bim BH3 peptide (25-mer, residues 141-165) (peptide): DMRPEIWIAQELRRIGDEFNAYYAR
Sequence of Bcl-xL (human) (Q07817 whole entry): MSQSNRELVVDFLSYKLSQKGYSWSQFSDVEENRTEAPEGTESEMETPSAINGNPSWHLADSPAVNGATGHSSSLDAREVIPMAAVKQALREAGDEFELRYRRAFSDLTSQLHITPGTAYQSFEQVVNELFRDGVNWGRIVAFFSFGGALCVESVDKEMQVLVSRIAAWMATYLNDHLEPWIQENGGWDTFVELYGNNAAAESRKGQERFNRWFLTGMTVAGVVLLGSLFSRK

Substance | Kd (Bcl-2 (human)) [nM] | Kd (Bcl-xL (human)) [nM] | Kd [1] [nM]
Bim (A149I) peptide | 115 | 12.2 | 0.82
Bim BH3 peptide (25-mer, residues 141-165) | 14.2 | 3.3 | 0.37
